Data: PMC12192683, “The LDL receptor-related protein 1 (LRP1) facilitates ACE2-mediated endocytosis of SARS-CoV2 spike protein-containing pseudovirions” (The Journal of Biological Chemistry, 2025)

Molecular target: T1, SARS-CoV-2 spike protein S1 subunit (Val16-Arg685) fused to the Fc region of mouse IgG1 (SARS-CoV-2, UniProt P0DTC2 16-685)
T1 construct: The SPR methods name S1-mFc for LRP1, VLDLR and LRP2; I took it as the S1 subunit of all SPR experiments; also called S1-mFc; Spike S1 subunit; source: bought: Sino Biological; not shown: Fc (mouse IgG1), C-terminal, kept
Experiment: SPR; Biacore 3000; receptor amine-coupled to CM5 chip; ligand flowed in HBS-P (0.01 M HEPES pH 7.4, 0.15 M NaCl, 0.005% P20) with 1 mM CaCl2, 10 ul/min, 25 C; kinetic fit to a 1:1 Langmuir model
Conditions: both partners purified

B1: LRP1 cluster II (domain or fragment)
chain: PQCQPGEFACANSRCIQERWKCDGDNDCLDNSDEAPALCHQHTCPSDRFKCENNRCIPNRWLCDGDNDCGNSEDESNATCSARTCPPNQFSCASGRCIPISWTCDLDDDCGDRSDESASCAYPTCFPLTQFTCNNGRCININWRCDNDNDCGDNSDEAGCSHSCSSTQFKCNSGRCIPEHWTCDGDNDCGDYSDETHANCTNQATRPPGGCHTDEFQCRLDGLCIPLRWRCDGDTDCMDSSDEKSCEGVTHVCDPSVKFGCKDSARCISKAWVCDGDNDCEDNSDEENCESLACRPPSHPCANNTSVCLPPDKLCDGNDDCGDGSDEGELC
Kd: 33 nM | koff: 0.00042 s⁻¹ | kon: 13000 M⁻¹ s⁻¹

B2: LRP1 cluster IV (domain or fragment)
chain: not shown
Kd: 67 nM | koff: 0.00066 s⁻¹ | kon: 9800 M⁻¹ s⁻¹

B3: Soluble form of the VLDL receptor containing repeats 1 to 8 (domain or fragment)
chain: not shown
notes: also called VLDLR 1 to 8; recombinant soluble VLDLR
Kd: 5 nM | koff: 0.00027 s⁻¹ | kon: 110000 M⁻¹ s⁻¹

B4: LRP1 cluster III (domain or fragment)
chain: not shown
Kd: 22 nM | koff: 0.00027 s⁻¹ | kon: 12000 M⁻¹ s⁻¹
